B1: PRKX (parent)
chain: KLLVVDRTRRLGNMKNGANDVKHH

Variants of: B1
Assay: protein stability index of a GFP-peptide fusion (GPS, HEK-293T) (PSI 1-6); higher = more stable
Conditions: c terminus: a fixed tail appended
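Further: lentivirally expressed fusions sorted by FACS into six bins by GFP to DsRed ratio, PSI derived from sequencing read proportions per bin multiplied by bin number.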

Protein stability index of substitutions, site by site:
R9: P 3.45 | K 2.99 | T 3.21 | D 3.4 | V 2.6 | S 3.33 | F 2.76 | E 3.5 | C 2.21 | N 2.81 | I 2.73 | H 3.07 | Q 3.38 | W 2.12 | Y 2.63 | M 2.99 | G 3.13 | L 2.69 | A 3.11
D20: S 2.38 | P 2.75 | K 2.55 | A 3.13 | W 2.3 | E 3.01 | Y 2.19 | N 2.74 | T 2.65 | V 2.6 | R 2.53 | I 2.09 | G 3.27 | M 2.71 | H 2.89 | F 2.13 | C 2.33 | Q 3.13 | L 2.41
N13: H 2.81 | R 2.75 | L 2.31 | C 2.62 | E 3.6 | V 3.02 | Q 2.6 | I 2.54 | T 3.09 | M 2.51 | Y 3 | W 2.6 | K 2.81 | S 2.91 | G 2.84 | D 3.46 | P 2.75 | F 2.02 | A 3.44
N16: S 3.27 | Q 3.25 | P 3.16 | Y 2.38 | F 2.42 | D 2.85 | C 2.13 | T 3.25 | G 2.84 | K 3.19 | A 2.54 | M 2.26 | H 2.85 | V 2.62 | E 3.18 | L 2.69 | R 2.74 | I 2.74 | W 2.26
G12: T 2.95 | C 2.84 | I 2.04 | W 2.19 | V 2.67 | P 3.19 | R 2.67 | Q 3.19 | N 2.6 | D 3.12 | Y 2.5 | A 2.84 | H 3 | F 2.51 | S 3.02 | M 2.24 | E 3.38 | K 2.48 | L 2.83
K15: A 3.25 | Y 2.68 | W 2.48 | V 2.72 | H 3.27 | R 3.6 | N 2.95 | E 3.92 | F 2.85 | C 2.57 | S 3.47 | L 2.86 | G 3.38 | Q 3.5 | I 2.73 | T 2.78 | M 2.73 | D 3.85 | P 2.9
A18: Q 2.95 | T 3.23 | S 3.27 | V 2.63 | R 2.97 | C 3.55 | G 3.27 | P 2.87 | E 3.67 | F 2.53 | D 3.85 | H 3.34 | M 2.16 | L 2.7 | Y 2.29 | K 3.21 | I 2.35 | N 3.19 | W 2.2
K22: S 3.52 | F 2.04 | H 3.06 | E 3.58 | Y 2.5 | G 3.24 | I 2.32 | M 2.51 | Q 3.27 | L 2.97 | W 2.13 | N 3.06 | D 3.42 | C 2.7 | P 3.02 | T 2.99 | A 2.71 | R 2.97 | V 2.88
G17: D 3.5 | F 1.81 | P 2.63 | H 3.4 | W 1.86 | C 2.63 | Q 3 | T 2.9 | I 2.74 | L 2.81 | V 3.04 | Y 2.34 | M 2.63 | R 2.55 | S 2.85 | K 3.06 | E 3.52 | N 3.08 | A 3.05
D6: G 2.29 | R 2.14 | Q 2.03 | L 1.98 | W 1.69 | H 2.82 | I 2.87 | P 2.94 | M 1.97 | T 2.52 | Y 2.29 | F 3.18 | K 2.55 | V 2.26 | S 2.81 | N 2.95
N19: R 2.54 | T 3.11 | L 2.47 | Y 2.08 | M 2.59 | K 3.6 | P 2.97 | G 3.12 | Q 2.89 | E 3.3 | H 2.75 | F 2.32 | D 3.12 | I 2.29 | W 2.71 | A 2.84 | S 3.16 | C 2.66 | V 2.64
R10: T 3.83 | C 2.61 | M 2.85 | H 3.04 | S 4.15 | Y 2.72 | F 2.31 | P 3.43 | N 3.4 | D 3.68 | V 3.08 | L 2.82 | Q 3.65 | G 3.35 | A 3.06 | W 2.8 | E 4.05 | K 2.84 | I 2.94
H23: K 3.4 | Q 2.69 | E 3.44 | L 2.85 | R 2.44 | C 2.94 | P 3.37 | G 2.92 | D 3.68 | M 2.33 | A 3.1 | N 3.72 | F 2.53 | I 2.67
L11: F 2.93 | R 3.65 | E 3.7 | K 2.93 | Y 3.1 | W 2.67 | P 3.57 | Q 3.42 | A 3.23 | N 3.6 | M 2.77 | S 3.27 | I 3.22 | C 2.57 | H 3.64 | G 3.21 | T 3.47 | V 3.09 | D 3.84
V21: N 3.74 | E 4.12 | D 3.54 | T 3.39 | P 3.37 | S 3.2 | K 3.54 | C 2.67 | W 2.62 | F 3.22 | H 3.43 | I 2.55 | G 3.47 | Q 3.36 | R 2.79 | A 3.5 | Y 2.34 | M 3.06 | L 2.66
M14: Y 3.03 | I 3.31 | D 4.09 | P 2.98 | C 2.85 | H 3.54 | K 3.85 | Q 3.62 | A 3.4 | E 3.8 | W 2.62 | T 3 | S 3.37 | G 3.74 | N 3.67 | R 2.77 | L 2.89 | V 3.22 | F 2.99
R7: V 2.81 | A 3.79 | G 3.22 | D 4.05 | F 1.83 | S 3.21 | K 2.56 | L 2.92 | W 2.5 | C 2.6 | E 3.7 | M 2.43 | I 2.13 | Q 3.97 | N 3.25 | P 3.62 | Y 2.5 | H 3.03 | T 3.18
T8: M 2.54 | F 2.56 | A 3.03 | N 2.78 | G 2.55 | C 2.98 | W 2.78 | I 1.97 | V 3 | P 2.74 | D 3.46 | L 2.47 | Y 2.67 | K 2.88 | S 2.67 | R 2.86 | Q 3.08 | H 2.97 | E 3.38
